Source: the DeepSol protein solubility set

test: soluble on expression in E. coli; label from the status in PepcDB or PDB records

Soluble on expression in E. coli, not soluble:
MGSDKIHHHHHHMNIRILGCHGSQVPGCNTTSFLVEENVLIDAGSITSTLTAEEQVKVDYIFVTHAHLDHVKEMMFMVDNLWYLQKSNPLTIVSIEPVIHALKTHLFNGLIWPDFSSLPNAENPVLRYEILEVGGKRNIGSFAVTAISVNHTVETVSYVIETGQGSMIFIGDTGPTEEIWKVANSIEDLKAIFVETSLPDEMNHIAEMTGHLTPAMLMKELFKLNNKNLDIYLYHMKDFYSKLITRQVAAMNQNRLHILEDGQTVRI
MGSDKIHHHHHHMNITIVGAGATGGYFGARLAASGLNVTFLVREKRAAQLREKGLVIKSVVEDLTLEAPQIAINAEDIPACDLVLLGLKNYQLAASLPQLKVLVNRGAKILPFLNGVEHFEILAKELGQENVLGGVCKIISTLDSEGTIHHTSKVHQIIFGELEPSGKEFCLRLEQAMAKANFKVKYTENILNEIWSKYAFITVFSGVTSAGDLTTDQICAHEATVKVYRRSLEEMKSLADAYGAALSEDFVEQNVEGLPKYAKGSTSSMHQDMRKGLLLEVESLQGAAIRLAGRKNMELPTIETLYGLIKPYEMGSIG
MGSDKIHHHHHHMNITSKLNQIIQECLVNRDSDLFIMPRFDKYQLLYRDAGGYRKSALIDRDEAEQIMMYIKYRADMGISERRRPQSGAMTWLNRQGELVNLRISTVGDFLDRPSMVIRFIYVLKQDEHILDSESMEKIQLATKLRGLMVFSGPMGSGKTTLIYEVARKLSETKMVMSIEDPVEIREHNFLQLQVNEKSGMSYQELLKNGLRNRPDVFIIGEIRDGKTAEIAIQAALSGHLVLTTVHSKSTQGVWNRIVELGVREEHLKEALTAVIYQRMIPAKVGDLKIMAEIKSFHPALKGTKKKWRERLEEWKESGQITKEVFEDFQYG
MGSDKIHHHHHHMNKNQYPKWEELPELDLYLDQVLLYVNQLINPKTITNDKLLTASMINNYVKHNYISKPIKKKYNRRQVARLIVITAFKQVFAIQEISQTLELLTADNHSEEAYNGFAACMNKEEVHDLPPVVISACQTLNLYQETQKLVLELGGKNKNA
MGSDKIHHHHHHMNKPCIISVAITGSLPRKKDNPAVPITVSEQVESTQAAFEAGATLVHLHVRNDDETPTSNPDRFALVLEGIRKHAPGMITQVSTGGRSGAGNERGAMLSLRPDMASLATGSVNFPTRVYDNPPELVDWLAAEMKTYGIKPEVEAFDLSMIFQAAAMQAAGAIVGPLHIQFVMGIKNAMPVDREVLEFYVQTLKRLSPDATWTGAGIGRHQLTMARWSLELGGHCRTGLEDNVRLDKNTLAPSNAALVRQVAELCEEYGRPVATAAQAREIMSLG
MGSDKIHHHHHHMNKSIFDDINSTNIGSYWTTLSQQMDPYLWETLMPNSKQIASDFVFYRGMSNAPKPLAPSAFGVPAIMRKRSGFDRVSDHTRYFKEGYYIDEAIRQQLLRVGANATQAEKDMINNHIFQDSMELLKGAQLTREIMRNQIIQTGKINVIGNGQTITADYQMKASHRVVNDKAWGTTGSTPFEDIQKARDLVGDDSDQVITRAVMNKATFNALMSDTNVKSTMLYDNGKLANVTIPQSELLNFLVTNYGLTVQIYDKRYMDIDGTKKKWIPDGRVIFLPDGELGKTIMSTTPEEADLAAASDVDMTLVDNGVAITTMLDSDPVNKKINVSQEVMPSFPQIDGIYILDAFAKTGTDPLATTPTAPASTTTTTDPKA
MGSDKIHHHHHHMNLATPSQMTAASIETFDATSCAAFSACYPETPHKLVHRLRDHPLLQLDALAALGEELPAHSVEYNRADLPIGLNGGKAPPNGIGIGETIRNIASTGSWAALKNVEQVPAYAALLGELLEGLRPTIEARTGAMLKPQGFVFVTSPDGVTPYHFDPEHNILLQLMGSKVMTMFPAGDSRFAPDETHETYHTGGGRELFWRDELLGHGRQWPLSPGEALYVPVMSPHFVTNGPSPSVSLSITWRSEWSFAEADARAFNGLLRSMGLKPGAPRRWPASNRAKAMCWRLYGKVRGLR
MGSDKIHHHHHHMNLKDLENPGVWYRPAPFWSWNDKLCEEELLRQIDEMYEKGYGGFFMHSRVGLVTEYLSEEWMRLVRSCAEHARKLGMLAWLYDEDKWPSGFAGGIVPLEKPEHRHKYLTLLKKDQIKPEDEILKKIERDGEEFYVVKRVMKLGDPWFNGTCYVDLLSRETTEAFLRSTHERYKKSCGDLFRVSIPGIFTDEPTYLRVHHPKETTLPWTERFPEEFLRRKGYDIRDHLEELFFNVKDYMKVRYDFFDVATSLFIENFTIPYAKWCEENGIFMTGHYMAEDTLRGQVEWIGAAMPHYEYMQIPGIDKLARHLEQVVTIKQVSSAAEQLGKKWVLCETFGTTGQHVSFLHRKWIADWQAVLGVTYINPHLSLYSMRGERKRDYPPNLFYQQPWWKNERFLSDYFARLNHIVTQGKREVKVLMIHPISSAWCVYSKFDDEIDKLNELFDTITKELVANKIDFHFGDEMILSKHGRVKEAKLRVGEYEYEVVVLPPLLNLKSSTVELLNSLAENGGKVFVLKDFRYGRFFPERVEGKKGRIEFLKKARVFETLEDLIEELKPFFSVDVLDTKTKENAKAVIAQKRVLEDGSYLLFLANTDIDREVHCHLELKEKRKHTYAIDLFNFKLVELKENEFVMFPASSVCIWVTDEEVPAEDEKVVSTGVLLEKEFDFETALNDFEVKMNSFNVLPVDRVEYFEAGGRVFRNEFVSKIWYEFYRLPDGTPFRVEYSFEVRKKPQKLFLVVECAENLDRITVNGREVRYERKSCIFNEEQNFLDVNFGKMEITDLVREGKNTVVLEGRKENNITGPGCHTRVKDPENHRPTEVETIYLVGDFSLVNVDETRYVIDAPKIPDHRDITRDGYPFYVGSFTLKKIFECKKDPGKRYFLKLNGVEAASVEVILNGKFLGVLFWRPFMIDITDALRNGKNELQLVLTNTLFNLIEANHKADVLEETFRRPKSFIDFEHHTDRYILLPFGLENVAVLSSSSR
MGSDKIHHHHHHMNLPLQGIKVVELGQLIAGPFAAKILAEFGAEVIKVEPPLTGDPLRKWRLLHNGTSVWWAVQSRNKQSVTLDLRQPQAQEMVRRLIRDADVLVENFRPGTLEGWGLSWEDLHALNPKLIMLRVSGYGQTGPYRDRPGFGVIGEAMGGLRHLSGEVGRTPVRVGVSIGDSLAALHGVIGILLALRHREQNAGEGQQIDVALYESVFNMMESLIPEYSVFNTVREPAGSSLPGIAPTNAYRCNDGKYALIAGNGDSIYRRLMEKIGRPDLANDPQLEHNDGRVRHVARIDAAISTWTAERSLDDVLAALTDARIPAGKIYDAADIASDPHYQARDMLLQSALDDGTPVTVPGIVPKLQDTPGQIRSPAPTLGQHTDAVLQAHGIDAATREEWRRLGII
MGSDKIHHHHHHMNLQYVLLNDNSWQSQGEWQTPDTPFMSFAFWQALSDTGAIGEEAGWLPIYILVHRVESDDDFTVQQSLSSVEASIKVKQPVAVLPVFIKGHHRGEFVFDHSWAQAYAQYGLDYYPRLVTSAPYTPITGQRLWLAEGETLDAEIINTAIKGVDDIAQQVDASGWHGLFVTPEMATIATTLMPFNSHTRSAGQSHGVDSASNTSMNIASNTPVLERQGCQFLWQNKNLSQNDQLFADFEEFLATLKAKKRKTIRAERRKVAEQGITCQRKCGDEIIESDWKTFYHCYVMTYAVRGQQPYLSIDFFEALAQNMAEHVMLAQALDAGGEIIASSLFLYDKPDNKMATLYGRYWGALGEYDSLHFELCYYQGIEFAIEQGLHYFDPGTQGEHKLIRGFIPTTTHSLHRIYDARFVPAIADFCHKDRLHMAQYREQAFEALPFNIDNMPTFDNNE
MGSDKIHHHHHHMNLVAHAQNTEPFEGVMKWAITVDIVDSKVADSYQTEIQSEDNSEVNQAIKELEQQLKDPEMQEMLLENPTIKNSMLKKLQQLKAAQTTNQENSTNSIFPSALSIFLKNNNSFTKIDGGSMVKLTGNMLYLNTNKNTYFIKDKTSTYSVINDTARLNTNDSLIALIATTDTTMILDCICIKYILTTKENNEIKTSYIWITNDLPSMNSAAFRSLGFMDGNLHHEAFKEMKGIPMRIEIFEKGLKMNMEVSEISMELVADTYFTIPSNYRESPFGF
MGSDKIHHHHHHMNLYVGLDVGTTGVKGILVNEKGEILATANERLTMFTPQPAWAEQDPLSWWEAVKKILKNLSERSKEMGGKIRAISTSGQMHSLVAIDDNGKVLRNAILWCDQRTYKECEEATQILGGEENVLKLVGNPILPGFTLPKILWIRKHEPEIYGKISKIMLPKDFINYMLTGEVKTEHSDASGTVMYSVSKMEWNKDVLKELNIPESVLPEIIPSNGVVGNVKPEVASDLGLSEDTLVIGGGADNACAALGIAVVEPGDVMVSLGTSGTVLAPTKGNQPDPKGRVHFFAHTVPETRYHMGVMLSATYSLEWFKEKFLSEDYETINEEVDKIPAGSNGIIFLPYLNGERTPHRDPFARGVFFGISSYNTKWDMVRAIFEGVAFGIKDSFDILRELKVVLNSVRITGGGSKSRVWNKMLADMTGLRIQKPAVDEGASYGAAILAVSGSMGENPAKISKEWFRVKSYTDPAVENTETYEKLHEKFKKLYTSLKEMFRS
MGSDKIHHHHHHMNPQLLRVTNRIIERSRETRSAYLARIEQAKTSTVHRSQLACGNLAHGFAACQPEDKASLKSMLRNNIAIITSYNDMLSAHQPYEHYPEIIRKALHEANAVGQVAGGVPAMCDGVTQGQDGMELSLLSREVIAMSAAVGLSHNMFDGALFLGVCDKIVPGLTMAALSFGHLPAVFVPSGPMASGLPNKEKVRIRQLYAEGKVDRMALLESEAASYHAPGTCTFYGTANTNQMVVEFMGMQLPGSSFVHPDSPLRDALTAAAARQVTRMTGNGNEWMPIGKMIDEKVVVNGIVALLATGGSTNHTMHLVAMARAAGIQINWDDFSDLSDVVPLMARLYPNGPADINHFQAAGGVPVLVRELLKAGLLHEDVNTVAGFGLSRYTLEPWLNNGELDWREGAEKSLDSNVIASFEQPFSHHGGTKVLSGNLGRAVMKTSAVPVENQVIEAPAVVFESQHDVMPAFEAGLLDRDCVVVVRHQGPKANGMPELHKLMPPLGVLLDRCFKIALVTDGRLSGASGKVPSAIHVTPEAYDGGLLAKVRDGDIIRVNGQTGELTLLVDEAELAAREPHIPDLSASRVGTGRELFSALREKLSGAEQGATCITF
MGSDKIHHHHHHMNQKTRLTLILDELKTHPSLSLKDIMQLTGTSRDTARRDIVKLAAHNLAERNYGGISRPNTFNKLDQYLDRDDDLLQTKRALAHTASSYLLNDALLFLDISTTVACLPQYLQSKHPGMIVTNSLDIADQALRHSNFQTRILGGTLDAQQRCVQGADSILALHKFRFTTTVLSCAGLTADGVYYAYESDIALKETLRAQSDRLVLLFDHTKVNVSHNFNLLALSDFDYFVTDQPLPDNLATKIAPDKLIYL
MGSDKIHHHHHHMNRKGNLSMTTQLQHLTLPEDIQQKLLSYKEQPISPEFQSLIGTSGYEAEDEAILFDAIIALAMGKNVLLKGPTGSGKTKLAETLSSYFHKPMHSVNCSVDLDAEALVGYKTIENQSGQATIEFVSGPVTKAMKEGHFLYIDEINMAKPETLPILNGVLDYRKMMTNPFTGEVIRAKSGFGVIAAINEGYVGTVPLNEALKNRFVIIDVPYIKGELLKQVLMSQSALKDEKLIDRFITLSSDLIVQANNGQVSEEAASIRALIDTCDLAAYIPPRRAIERGIVEKLDDDREKAAVRNIAETLFE
MGSDKIHHHHHHMNRLRYSVNLSYEILDPTGDFLLIVEAAKTARQSVVSERLALTPPAHAARYTDPLGNRLLRIRANKGPLAIRYEAVVDIDHRLDDGMSLTEVPVAELPFDVLSYLAPSRYCESDRMMEFAMREFGSMRPGYSRVYAIREWVRNHVRFLSRSTNERTSAIDTIVERTGVCRDFSHLMIAICRALSIPARMSSSVDYGADPALGAPDFHAVVEVFLSGGWYLLDPSGVSIPTGLLRIGTGRDAADIPFAAIFGKVESKRPFIEIQPIADPVAGIGLPLATTSAISTW
